Data taken from US20020122804.

Columns and labels:
[1] = target: BSA (Fraction V, Sigma), P02769
[2] = target: T1, hyphal wall protein 1 (Hwp1) on C. albicans germ tube surfaces, P46593
T1 chain: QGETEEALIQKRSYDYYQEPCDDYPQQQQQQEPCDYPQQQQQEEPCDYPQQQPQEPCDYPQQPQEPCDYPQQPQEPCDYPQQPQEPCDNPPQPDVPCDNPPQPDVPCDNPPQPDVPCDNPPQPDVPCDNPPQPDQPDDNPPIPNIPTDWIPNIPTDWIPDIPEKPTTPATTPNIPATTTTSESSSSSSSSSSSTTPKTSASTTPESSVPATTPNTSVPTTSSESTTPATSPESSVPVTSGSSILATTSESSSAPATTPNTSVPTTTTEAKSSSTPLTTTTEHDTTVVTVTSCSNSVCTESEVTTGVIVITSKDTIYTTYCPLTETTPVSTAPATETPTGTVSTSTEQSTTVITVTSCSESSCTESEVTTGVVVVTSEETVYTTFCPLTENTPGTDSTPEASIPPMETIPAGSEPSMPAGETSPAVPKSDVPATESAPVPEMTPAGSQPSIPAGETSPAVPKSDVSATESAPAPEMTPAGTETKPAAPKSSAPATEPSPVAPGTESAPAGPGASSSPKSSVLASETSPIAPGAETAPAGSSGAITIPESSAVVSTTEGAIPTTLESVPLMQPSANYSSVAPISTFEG

Sequence of BSA (Fraction V, Sigma), P02769 (P02769 25-607): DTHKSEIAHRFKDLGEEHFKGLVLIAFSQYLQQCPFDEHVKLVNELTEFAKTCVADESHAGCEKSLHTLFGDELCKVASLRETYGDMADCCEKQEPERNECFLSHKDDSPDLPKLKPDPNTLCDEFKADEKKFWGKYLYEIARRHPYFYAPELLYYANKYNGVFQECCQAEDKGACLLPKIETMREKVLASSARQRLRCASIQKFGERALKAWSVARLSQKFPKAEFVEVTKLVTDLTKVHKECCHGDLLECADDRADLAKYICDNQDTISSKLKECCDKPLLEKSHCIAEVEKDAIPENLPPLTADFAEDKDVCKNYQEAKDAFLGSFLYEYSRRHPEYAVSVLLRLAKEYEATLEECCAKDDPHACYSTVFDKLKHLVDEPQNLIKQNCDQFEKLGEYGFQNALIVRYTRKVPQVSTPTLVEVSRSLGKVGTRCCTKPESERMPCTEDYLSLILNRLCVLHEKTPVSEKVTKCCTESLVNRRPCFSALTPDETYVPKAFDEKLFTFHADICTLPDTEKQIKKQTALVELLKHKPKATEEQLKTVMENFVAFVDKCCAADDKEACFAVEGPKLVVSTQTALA

B1: guinea pig liver transglutaminase (protein)
chain: AEDLILERCDLQLEVNGRDHRTADLCRERLVLRRGQPFWLTLHFEGRGYEAGVDTLTFNAVTGPDPSEEAGTMARFSLSSAVEGGTWSASAVDQQDSTVSLLLSTPADAPIGLYRLSLEASTGYQGSSFVLGHFILLYNPRCPADAVYMDSDQERQEYVLTQQGFIYQGSAKFINGIPWNFGQFEDGILDICLMLLDTNPKFLKNAGQDCSRRSRPVYVGRVVSAMVNCNDDQGVLQGRWDNNYSDGVSPMSWIGSVDILRRWKDYGCQRVKYGQCWVFAAVACTVLRCLGIPTRVVTNFNSAHDQNSNLLIEYFRNESGEIEGNKSEMIWNFHCWVESWMTRPDLEPGYEGWQALDPTPQEKSEGTYCCGPVPVRAIKEGHLNVKYDAPFVFAEVNADVVNWIRQKDGSLRKSINHLVVGLKISTKSVGRDEREDITHTYKYPEGSEEEREAFVRANHLNKLATKEEAQEETGVAMRIRVGQNMTMGSDFDIFAYITNGTAESHECQLLLCARIVSYNGVLGPVCSTNDLLNLTLDPFSENSIPLHILYEKYGDYLTESNLIKVRGLLIEPAANSYVLAERDIYLENPEIKIRVLGEPKQNRKLIAEVSLKNPLPVPLLGCIFTVEGAGLTKDQKSVEVPDPVEAGEQAKVRVDLLPTEVGLHKLVVNFECDKLKAVKGYRNVIIGPA
[1]
  [14C]-putrescine cross-linking detected by SDS-PAGE and fluorography: no evidence of cross-linking of [^14C]-putrescine to transglutaminase itself or to BSA was seen
  transglutaminase-mediated incorporation of [14C]-putrescine (TCA-precipitable counts): BSA served as a negative control
N,N' dimethylcasein
  transglutaminase-mediated incorporation of [14C]-putrescine (TCA-precipitable counts): Incorporation of [^14C]-putrescine by rHwp1?C37 was equivalent to that of casein, a known substrate of transglutaminases
[2]
  transglutaminase-mediated incorporation of a biotinylated lysine analogue into germ tubes (avidin-FITC fluorescence): Transglutaminase-mediated incorporation of a lysine analogue in the homozygous hwp1/hwp1 mutant strain CAH7-1A (FIG. 2E) was nearly absent as shown by the marked decrease in fluorescence compared to SC5314, CAI4, and CAH7
rHwp1ΔC37, P46593
  [14C]-putrescine cross-linking detected by SDS-PAGE and fluorography: [^14C]-putrescine cross-linking to rHwp1?C37 detected by SDS-PAGE and fluorography required active transglutaminase
  transglutaminase-mediated incorporation of [14C]-putrescine (TCA-precipitable counts): Incorporation of [^14C]-putrescine by rHwp1?C37 was equivalent to that of casein, a known substrate of transglutaminases
